Results as given in patent US20260060994A1, “GLYCOSYLATED COMPOSITIONS AND METHODS OF USE” (Cy Biopharma AG, priority 2023, published 2026).

Key:
[1] = Pharmacokinetic experiment in mice, plasma and brain, LC-MS/MS; assay type: in vivo, C57Bl/6J mice
Description: In a pharmacokinetic experiment in C57Bl/6J mice (3 animals per timepoint; schedule shown below) two example compounds, Cy1 (4-HO-EPT glycoside) and Cy2 (4-HO-DMT glycoside) were dosed at two different concentrations (20 mg/kg dose shown here) and the parent compounds and their de-glycosylated forms, 4-HO-EPT and psilocin (4-HO-DMT), respectively, were measured by LC-MS/MS in plasma and brain tissue samples. For comparison, psilocybin was dosed at 1.5 mg/kg orally and plasma and brain tissue concentrations of psilocin (4-HO-DMT) were measured. Samples were collected at four or five different timepoints (from 10-minutes post dosing up to 6-hours post dosing) following the test article administration.
Schedule of pharmacokinetic experiment shown below.
Results are reported in ng/mL for the concentration in plasma and in ng/g tissue for the concentration measured in brain samples.
Results: The graphs in FIG. 35, FIG. 36, FIG. 37, and FIG. 38 display the time course of concentrations of compounds as indicated. For each time point the data for the individual animals are plotted.

[2] = Glycosylation of 5-HO-DMT by GLY enzymes (UDP-glucose), LC-UV/MS; assay type: biochemical; conditions: conditions of Examples 1 and 2 repeated for 5-HO-DMT
Description: (§1) The assay conditions were: • 100 mM Tris-HCl, pH 7.4 • 5 mM MgCl2 • 1 mM KCl • 1.25 mM UDP-glucose • 0.5 mM 4-OH-MET • 5% (v/v) DMSO • 0.1 U/uL Fast AP phosphatase • 25% (v/v) GLY enzyme
(§2) Incubation was 24 house at 30° C. Reactions were terminated adding 3 volumes of 75% (v/v) ethanol.
(§3) LC separation was performed using an Agligen 1290 Infinity II UHPLC equipped with a Phenomenex Kinetex XB-C18 column (1.7 um, 100 angstroms, 100×2.1 mm) and 4-HO-MET was detected by absorbance at 210 nm and 268 nm with an Agilent 1260 Infinity II DAD.
(§4) 0.1% Formic acid in water (A) and 0.1% Formic acid in acetonitrile (B) were used as the mobile phases for the elution gradient, with a flow rate of 0.4 ml/min. Retention time for 4-HO-MET using this type of instrument under these condition was 2.6 min. The system was coupled to an Ultivo Triple Quadrupole MS. To verify the presence of possible glycoside products, as SIM (Selected Ion Monitoring) method was used on the MS to analyse for the m/z 381 (theoretical mass to chart ratio of 4-HO-MET-glucoside) and m/z 219 (theoretical mass to charge ratio of 4-HO-MET).
(§5) The enzymes giving the additional peak putatively corresponding to the 4-HO-MET-β-D-glucoside are listed below. […] A correct quantification of the product is not possible without a standard for the specific molecule. However, based on the assumption that the ratio area-to-concentration in the UV chromatograms will be similar to 4-HO-MET, estimates of the relative abundance for the additional peak are also given, expressed as percentage of converted 4-HO-MET. GLY enzymes hits are ranked according to their estimated conversion efficiency.
(§6) The experiments described in Examples 1 and 2 above were repeated for 4-OH-MiPT, 4-HO-DMT and 5-HO-DMT
(§7) Below is the corresponding data for 4-OH-DMT and 5-HO-DMT.

[3] = Glycosylation of 4-HO-MET by GLY enzymes (UDP-glucose), LC-UV/MS; assay type: biochemical; conditions: 0.5 mM 4-OH-MET, 1.25 mM UDP-glucose, 25% (v/v) GLY enzyme, 24 h at 30° C.; estimate from UV peak areas
Description: 4-HO-MET was dissolved in 100% (v/v) DMSO to a concentration of 10 mM. The solution was stored at −20° C. prior to use.
FastAP phosphatase (1 U/uL) from ThermoFisher Scientific (catalog no. EF0651).
GLY enzyme suspensions contain 10 mM Tris-HCl at pH7.4, 250 mM imidazole and 50% (v/v) glycerol.
as §1, §2, §3, §4
As standard, 4-HO-MET solutions at a concentrations of 500, 250, 125, 62.5, and 31.25 uM were prepared from the 10 mM stock and used for caliboration.
A representative example of the chromatograms obtained with a wavelength of 268 nm for the standard solutions resuspended in the reaction buffer, and the corresponding MS-SIM signal, is shown in FIG. 16. The peak corresponding to 4-HO-MET is indicated.
When analyzing the GLY reactions, 30 of them gave an additional peak with retention time 2.2 min (i.e. in the expected region for a 4-HO-MET glucoside) and molecular mass compatible with the expected glucoside product, together with a corresponding decrease in substrate concentration, compared to the no-enzyme controls.
The method was repeated using various GLY enzymes to produce 4-HO-MET glucosides.
as §5

[4] = Glycosylation of 4-OH-DMT by GLY enzymes (UDP-glucose), LC-UV/MS; assay type: biochemical; conditions: conditions of Examples 1 and 2 repeated for 4-HO-DMT; estimate from UV peak areas
Description: as §1, §2, §3, §4, §5, §6, §7

[5] = Glycosylation of 4-OH-EPT by GLY enzymes (UDP-glucose), LC-UV/MS; assay type: biochemical; conditions: conditions of Examples 1 and 2 repeated for 4-OH-EPT; estimate from UV peak areas
Description: as §1, §2, §3, §4, §5
The experiments described in Examples 1 and 2 above were repeated for 4-OH-EPT.
Below is the corresponding data for 4-OH-EPT.

[6] = Glycosylation of 4-OH-MiPT by GLY enzymes (UDP-glucose), LC-UV/MS; assay type: biochemical; conditions: conditions of Examples 1 and 2 repeated for 4-OH-MiPT; estimate from UV peak areas
Description: as §1, §2, §3, §4, §5, §6
Below is the corresponding data for 4-OH-MiPT.

Molecule	period of exposure in brain ([1]; higher doses (20 mg/kg p.o.), brain, as compared to psilocybin 1.5 mg/kg p.o.)	period of exposure in plasma ([1]; higher doses (20 mg/kg p.o.), plasma, as compared to psilocybin 1.5 mg/kg p.o.)	time to peak brain concentration ([1]; p.o. single dose, brain, as compared to the administration of psilocybin 1.5 mg/kg p.o.)	time to peak plasma concentration ([1]; p.o. single dose, plasma, as compared to the administration of psilocybin 1.5 mg/kg p.o.)	5-OH-DMT GLY % [2]	4-OH-MET GLY % (percentage of converted 4-HO-MET) [3]	4-OH-DMT GLY % [4]	4-OH-EPT GLY % (percentage of converted 4-OH-EPT) [5]	4-OH-MiPT GLY % (percentage of converted 4-OH-MiPT) [6]
CCCN(CC)CCc1c[nH]c2cccc(O[C@@H]3O[C@H](CO)[C@@H](O)[C@H](O)[C@H]3O)c12 [Cy1, 4-HO-EPT glycoside]	extended period of exposure	extended period of exposure	extended	extended					
GLY153: glycosyltransferase (UGT), SEQ ID NO: 20 (protein) MAETDSPPHVAILPSPGMGHLIPLVELAKRLVHQHNLSVTFIIPTDGSPSKAQRSVLGSLPSTIHSVFLPPVNLSDLPEDVKIETLISLTVARSLPSLRDVLSSLVASGTRVVALVVDLFGTDAFDVAREFKASPYIFYPAPAMALSLFFYLPKLDEMVSCEYSEMQEPVEIPGCLPIHGGELLDPTRDRKNDAYKWLLHHSKRYRLAEGVMVNSFIDLERGALKALQEVEPGKPPVYPVGPLVNMDSNTSGVEGSECLKWLDDQPLGSVLFVSFGSGGTLSFDQITELALGLEMSEQRFLWVARVPNDKVANATYFSVDNHKDPFDFLPKGFLDRTKGRGLVVPSWAPQAQVLSHGSTGGFLTHCGWNSTLESVVNAVPLIVWPLYAEQKMNAWMLTKDVEVALRPKASENGLIGREEIANIVRGLMEGEEGKRVRNRMKDLKDAAAEVLSEAGSSTKALSEVARKWKNHKCTQDCN					5%	6%			
GLY70: glycosyltransferase (UGT), SEQ ID NO: 2 (protein) MAKQQEAELIFIPFPIPGHILATIELAKRLISHQPSRIHTITILHWSLPFLPQSDTIAFLKSLIETESRIRLITLPDVQNPPPMELFVKASESYILEYVKKMVPLVRNALSTLLSSRDESDSVHVAGLVLDFFCVPLIDVGNEFNLPSYIFLTCSASFLGMMKYLLERNRETKPELNRSSDEETISVPGFVNSVPVKVLPPGLFTTESYEAWVEMAERFPEAKGILVNSFESLERNAFDYFDRRPDNYPPVYPIGPILCSNDRPNLDLSERDRILKWLDDQPESSVVFLCFGSLKSLAASQIKEIAQALELVGIRFLWSIRTDPKEYASPNEILPDGFMNRVMGLGLVCGWAPQVEILAHKAIGGFVSHCGWNSILESLRFGVPIATWPMYAEQQLNAFTIVKELGLALEMRLDYVSEYGEIVKADEIAGAVRSLMDGEDVPRRKLKEIAEAGKEAVMDGGSSFVAVKRFIDGL					6%	98.6%	89.3%	80.5%	58.4%
GLY91: glycosyltransferase (UGT), SEQ ID NO: 12 (protein) MGKQEDAELVIIPFPFSGHILATIELAKRLISQDNPRIHTITILYWGLPFIPQADTIAFLRSLVKNEPRIRLVTLPEVQDPPPMELFVEFAESYILEYVKKMVPIIREALSTLLSSRDESGSVRVAGLVLDFFCVPMIDVGNEFNLPSYIFLTCSAGFLGMMKYLPERHREIKSEFNRSFNEELNLIPGYVNSVPTKVLPSGLFMKETYEPWVELAERFPEAKGILVNSYTALEPNGFKYFDRCPDNYPTIYPIGPILCSNDRPNLDLSERDRILKWLDDQPESSVVFLCFGSLKSLAASQIKEIAQALELVGIRFLWSIRTDPKEYASPNEILPDGFMNRVMGLGLVCGWAPQVEILAHKAIGGFVSHCGWNSILESLRFGVPIATWPMYAEQQLNAFTIVKELGLALEMRLDYVSEYGEIVKADEIAGAVRSLMDGEDVPRRKLKEIAEAGKEAVMDGGSSFVAVKRFIDGL					1%	20.7%		5.4%	
GLY87: glycosyltransferase (UGT), SEQ ID NO: 10 (protein) MGKQEDAELVIIPFPFSGHILATIELAKRLISQDNPRIHTITILYWGLPFIPQADTIAFLRSLVKNEPRIRLVTLPEVQDPPPMELFVEFAESYILEYVKKMVPIIREALSTLLSSRDESGSVRVAGLVLDFFCVPMIDVGNEFNLPSYIFLTCSAGFLGMMKYLPERHREIKSEFNRSFNEELNLIPGYVNSVPTKVLPSGLFMKETYEPWVELAERFPEAKGILVNSYTALEPNGFKYFDRCPDNYPTIYPIGPILNLENKKDDAKTDEIMRWLNEQPESSVVFLCFGSMGSFNEKQVKEIAVAIERSGHRFLWSLRRPTPKEKIEFPKEYENLEEVLPEGFLKRTSSIGKVIGWAPQMAVLSHPSVGGFVSHCGWNSTLESMWCGVPMAAWPLYAEQTLNAFLLVVELGLAAEIRMDYRTDTKAGYDGGMEVTVEEIEDGIRKLMSDGEIRNKVKDVKEKSRAAVVEGGSSYASIGKFIEHVSNVTI					3%	95.2%	85.3%	68.9%	76.4%
